# Test results from patent publication US20200347101A1 (PAI LIFE SCIENCES, published 2020).
# “And” between values parts separate entries of the source, which are not always exact repeats. Equal values may be shown once. Read-outs that look alike come from different tables or passages of the source.
# T1: DSG2 on cells (HeLa cells in the viral inhibition assay; HT29 cells in the shedding assay) (UniProt Q14126 50-1118)
# T1 sequence: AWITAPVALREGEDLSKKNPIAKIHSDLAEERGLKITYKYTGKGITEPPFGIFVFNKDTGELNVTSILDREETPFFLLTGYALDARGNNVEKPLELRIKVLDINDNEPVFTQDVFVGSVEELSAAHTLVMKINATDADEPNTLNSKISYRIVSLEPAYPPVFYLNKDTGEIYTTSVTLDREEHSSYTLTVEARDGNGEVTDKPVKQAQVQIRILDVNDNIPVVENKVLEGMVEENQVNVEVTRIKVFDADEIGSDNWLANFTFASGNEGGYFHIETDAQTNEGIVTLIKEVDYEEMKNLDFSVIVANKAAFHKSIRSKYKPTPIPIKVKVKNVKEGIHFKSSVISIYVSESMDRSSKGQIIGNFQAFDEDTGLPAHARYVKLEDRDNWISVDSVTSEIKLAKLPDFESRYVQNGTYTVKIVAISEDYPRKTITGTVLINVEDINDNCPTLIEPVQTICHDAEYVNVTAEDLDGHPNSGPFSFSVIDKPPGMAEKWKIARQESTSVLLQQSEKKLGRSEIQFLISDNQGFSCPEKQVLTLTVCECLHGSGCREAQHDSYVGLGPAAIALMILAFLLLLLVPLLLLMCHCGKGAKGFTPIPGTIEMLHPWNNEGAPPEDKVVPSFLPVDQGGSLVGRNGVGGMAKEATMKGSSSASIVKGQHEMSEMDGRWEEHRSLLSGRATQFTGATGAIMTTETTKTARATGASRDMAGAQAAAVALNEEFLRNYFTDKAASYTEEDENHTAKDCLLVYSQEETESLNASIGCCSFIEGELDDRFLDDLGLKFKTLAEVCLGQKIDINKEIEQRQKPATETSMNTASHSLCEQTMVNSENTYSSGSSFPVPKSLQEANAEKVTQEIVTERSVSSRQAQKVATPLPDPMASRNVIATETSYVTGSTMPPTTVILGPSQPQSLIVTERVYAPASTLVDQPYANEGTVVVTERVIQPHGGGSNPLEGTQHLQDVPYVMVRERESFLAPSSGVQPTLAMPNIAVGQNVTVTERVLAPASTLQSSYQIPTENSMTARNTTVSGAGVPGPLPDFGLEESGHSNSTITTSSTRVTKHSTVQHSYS
# T2: recombinant human DSG2 (human, UniProt Q14126 50-609)
# T2 construct: also called hDSG2; rhDSG2
# T2 sequence: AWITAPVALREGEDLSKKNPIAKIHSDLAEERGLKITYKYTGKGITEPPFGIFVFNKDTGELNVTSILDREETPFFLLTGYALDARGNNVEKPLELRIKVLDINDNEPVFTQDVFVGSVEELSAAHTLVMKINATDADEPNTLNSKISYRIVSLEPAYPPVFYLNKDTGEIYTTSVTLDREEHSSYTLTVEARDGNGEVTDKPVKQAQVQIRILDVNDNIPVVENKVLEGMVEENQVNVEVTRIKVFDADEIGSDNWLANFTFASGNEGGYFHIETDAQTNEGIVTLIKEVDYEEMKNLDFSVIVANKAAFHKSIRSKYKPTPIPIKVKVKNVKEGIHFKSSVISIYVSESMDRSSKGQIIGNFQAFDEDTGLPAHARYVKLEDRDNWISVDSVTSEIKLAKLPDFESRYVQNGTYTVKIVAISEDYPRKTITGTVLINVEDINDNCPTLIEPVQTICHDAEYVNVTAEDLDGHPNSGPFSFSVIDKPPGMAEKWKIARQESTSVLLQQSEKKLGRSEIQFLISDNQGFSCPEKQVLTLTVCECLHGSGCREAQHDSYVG
# B1: GB3 (designed binder)
# chain: MRGSHHHHHHGSKVSALKEKVSALKEKVSALKEKVSALKEKVSALKEGSGGGSGGGSGGGSNSIALKNNTLWTGPKPEANSIIEYGKQNPDSKLTLILVKNGGIVNGYVTLMGASDYVNTLFKNKNVSINVELYFDATGHILPDSSSLKTDLELKYKQTADFSARGFMPSTTAYPFDLPNAGTHNENYIFGQSYYKASDGALFPLEVTVMLNKRLPDSRTSYVMTFLWSLNAGLAPETTQATLITSPFTFSYIREDDGGGSGGGSGGGSC
# B2: GB7/JOC-x (designed binder)
# chain: RGSHHHHHHGSKNSIALKNNTLWTGPKPEANSIIEYGKQNPDSKLTLILVKNGGIVNGYVTLMGASDYVNTLFKNKNVSINVELYFDATGHILPDSSSLKTDLELKYKQTADFSARGFMPSTTAYPFDLPNAGTHNENYIFGQSYYKASDGALFPLEVTVMLNKRLPDSRTSYVMTFLWSLNAGLAPETTQATLITSPFTFSYIREDDGGGSGGGSGGGSC
# notes: also called GB7 (ΔDD)
# B3: JOC-DOTA (designed binder)
# chain: RGSHHHHHHGSKNSIALKNNTLWTGPKPEANSIIEYGKQNPDSKLTLILVKNGGIVNGYVTLMGASDYVNTLFKNKNVSINVELYFDATGHILPDSSSLKTDLELKYKQTADFSARGFMPSTTAYPFDLPNAGTHNENYIFGQSYYKASDGALFPLEVTVMLNKRLPDSRTSYVMTFLWSLNAGLAPETTQATLITSPFTFSYIREDDGGGSGGGSGGGSC
# modifications: maleimido-mono-amide-DOTA conjugated to reduced JOC-x (free cysteine)
# B4: JOC-DOTA (Eu) (designed binder)
# chain: RGSHHHHHHGSKNSIALKNNTLWTGPKPEANSIIEYGKQNPDSKLTLILVKNGGIVNGYVTLMGASDYVNTLFKNKNVSINVELYFDATGHILPDSSSLKTDLELKYKQTADFSARGFMPSTTAYPFDLPNAGTHNENYIFGQSYYKASDGALFPLEVTVMLNKRLPDSRTSYVMTFLWSLNAGLAPETTQATLITSPFTFSYIREDDGGGSGGGSGGGSC
# modifications: maleimido-mono-amide-DOTA conjugated to reduced JOC-x (free cysteine), complexed with europium ions
# B5: JOC-poly(I:C) conjugate (designed binder)
# chain: RGSHHHHHHGSKNSIALKNNTLWTGPKPEANSIIEYGKQNPDSKLTLILVKNGGIVNGYVTLMGASDYVNTLFKNKNVSINVELYFDATGHILPDSSSLKTDLELKYKQTADFSARGFMPSTTAYPFDLPNAGTHNENYIFGQSYYKASDGALFPLEVTVMLNKRLPDSRTSYVMTFLWSLNAGLAPETTQATLITSPFTFSYIREDDGGGSGGGSGGGSC
# modifications: poly(I:C) linked through the crosslinker SMPB to the free cysteine on JOC-x
# B6: GB5 (designed binder)
# chain: MRGSHHHHHHGSKNSIALKNNTLWTGPKPEANSIIEYGKQNPDSKLTLILVKNGGIVNGYVTLMGASDYVNTLFKNKNVSINVELYFDATGHILPDSSSLKTDLELKYKQTADFSARGFMPSTTAYPFVLPNAGTHNENYIFGQSYYKASDGALFPLEVTVMLNKRLPDSRTSYVMTFLWSLNAGLAPETTQATLITSPFTFSYIREDD
# B7: GB10 (designed binder)
# chain: MRGSHHHHHHCGSKVSALKEKVSALKEKVSALKEKVSALKEKVSALKEGSGGGSGGGSGGGSNSIALKNNTLWTGPKPEANSIIEYGKQNPDSKLTLILVKNGGIVNGYVTLMGASDYVNTLFKNKNVSINVELYFDATGHILPDSSSLKTDLELKYKQTADFSARGFMPSTTAYPFVLPNAGTHNENYIFGQSYYKASDGALFPLEVTVMLNKRLPDSRTSYVMTFLWSLNAGLAPETTQATLITSPFTFSYIREDD
# Columns and labels:
# [1] = target: recombinant human DSG2 (human) (UniProt Q14126); experiment: SPR; summary table, Affinity to DSG2 (nM)
# [2] = target: recombinant human DSG2 (human) (UniProt Q14126); experiment: SPR (Biacore 3000), hDSG2 immobilized, JO protein flowed
# [3] = target: recombinant human DSG2 (human) (UniProt Q14126); experiment: SPR (Biacore 3000), JO protein immobilized, rhDSG2 flowed
# [4] = target: recombinant human DSG2 (human) (UniProt Q14126); experiment: SPR, comparison of the two formats
# [5] = target: DSG2 on cells (HeLa cells in the viral inhibition assay; HT29 cells in the shedding assay) (UniProt Q14126); experiment: cell-based or functional assay
# [6] = target: DSG2 on cells (HeLa cells in the viral inhibition assay; HT29 cells in the shedding assay) (UniProt Q14126)
# [7] = target: DSG2 on cells (HeLa cells in the viral inhibition assay; HT29 cells in the shedding assay) (UniProt Q14126); experiment: cell-based or functional assay; remark: listed apart in the source
# [8] = target: T1, DSG2 on cells (HeLa cells in the viral …); experiment: cell-based or functional assay
# [9] = target: T1, DSG2 on cells (HeLa cells in the viral …); experiment: cell-based or functional assay; remark: listed apart in the source
# [10] = target: T1, DSG2 on cells (HeLa cells in the viral …); experiment: cell-based or functional assay; remark: listed apart in the source
# [11] = target: T1, DSG2 on cells (HeLa cells in the viral …); experiment: cell-based or functional assay; remark: listed apart in the source
# [12] = target: T2, recombinant human DSG2; experiment: SPR (Biacore 3000), hDSG2 immobilized, JO protein flowed
# Protocol: SPR analysis of binding affinities to DSG2. SPR analysis was performed at 25° C. using a Biacore 3000 instrument (GE Healthcare, Pittsburgh, Pa.). […] The surfaces were regenerated by pulse injection of 5 mM EDTA. The signal recorded on reference flow cell without protein were subtracted from that obtained on protein. For association data, proteins were injected at a flow rate of 15 μL/min for 180 seconds. Following the association phase, buffer was flowed at 15 μL/min for an additional 150 seconds to measure dissociation. Binding curves were analyzed using BIAEvaluation software (GE Healthcare) and data was fit to a 1:1 Langmuir interaction model. Affinities were mathematically derived by subtracting the dissociation rate by the association rate.
# To compare the affinities and association/dissociation rates of JO derivatives to DSG2, SPR (surface plasmon resonance) analysis was performed by immobilizing recombinant human DSG2 onto a sensor chip and flowing the junction opener proteins over the surface.
# [13] = target: T2, recombinant human DSG2; experiment: SPR; summary table, Affinity to DSG2 (nM)
# [14] = target: T2, recombinant human DSG2; experiment: SPR, comparison of the two formats
# [15] = target: T2, recombinant human DSG2; experiment: SPR (Biacore 3000), JO protein immobilized, rhDSG2 flowed
# [16] = target: T1, DSG2 on cells (HeLa cells in the viral …); experiment: cell-based or functional assay; remark: listed apart in the source
# [17] = target: T1, DSG2 on cells (HeLa cells in the viral …); experiment: cell-based or functional assay; remark: listed apart in the source
molecule,measurement,setting,value
JO-4 (designed binder; other documents disagree on this pair),Kd,[1],0.58 nM
same,Kd,[2],11.4 nM
same,koff,[2],0.00264 s⁻¹
same,Kd,[3],0.58 nM
same,koff,[3],0.00046 s⁻¹
same,kon,[3],790000 M⁻¹ s⁻¹
same,"fold faster on-rate, JO-4 immobilized against DSG2 immobilized",[4],3.4 fold
same,"fold improvement in affinity, JO-4 immobilized against DSG2 immobilized",[4],20 fold
same,"fold more stable dissociation rate, JO-4 immobilized against DSG2 immobilized",[4],5.7 fold
JO-4 (designed binder),DSG2 shedding from HT29 cells relative to PBS treated monolayers (ELISA of the medium),[5],1.44 fold
same,VIA IC50,[5],0.067 µg/mL
same,"IC50 (read off the curve); VIA, oxidized (non-reduced) JO4",[6],0.05 µg/mL
same,"IC50 (read off the curve); VIA, reduced (DTT) JO4",[6],0.05 µg/mL
same,VIA IC50,[7],0.065 µg/mL
B1,"IC50 (read off the curve); VIA, oxidized (non-reduced) GB3",[8],~0.03 µg/mL
same,"IC50 (read off the curve); VIA, reduced (DTT) GB3",[8],~0.06 µg/mL
same,VIA IC50,[9],0.028 µg/mL
same,DSG2 shedding from HT29 cells relative to PBS treated monolayers (ELISA of the medium),[10],1.52 fold
same,"VIA, DTT-reduced against oxidized protein: reduction in viral inhibition",[10],~2 fold
same,VIA IC50,[11],0.029 µg/mL
same,Kd,[12],0.11 nM
same,koff,[12],0.0005 s⁻¹
same,Kd,[13],0.11 nM
B2,"fold reduction in affinity, GB7 immobilized against DSG2 immobilized",[14],2 fold
same,VIA IC50,[9],0.029 µg/mL
same,DSG2 shedding from HT29 cells relative to PBS treated monolayers (ELISA of the medium),[10],1.39 fold
same,VIA IC50,[10],0.032 µg/mL and 0.055 µg/mL
same,"VIA, DTT-reduced against oxidized protein: decrease in viral inhibition",[10],5 fold
same,loss of viral inhibition of unconjugated JOC-x in the presence of poly(I:C) (VIA),[10],~3.9 fold
same,VIA IC50,[11],0.032 µg/mL
same,Kd,[15],1.19 nM
same,koff,[15],0.00075 s⁻¹
same,kon,[15],630000 M⁻¹ s⁻¹
same,Kd,[12],0.58 nM
same,koff,[12],0.00083 s⁻¹
same,"IC50 (read off the curve); VIA, unconjugated mixture JOC-x + poly(I:C)",[16],~0.2 µg/mL
same,Kd,[13],1.2 nM
same,"IC50 (read off the curve); VIA, oxidized (non-reduced) GB7 (JOC-x)",[17],~0.02 µg/mL
same,"IC50 (read off the curve); VIA, reduced (DTT) GB7 (JOC-x)",[17],~0.2 µg/mL
B3,VIA IC50,[10],0.131 µg/mL
B4,VIA IC50,[10],0.254 µg/mL
B5,IC50 of the conjugate relative to the unconjugated protein (VIA),[10],~6.3 fold
same,VIA IC50,[10],0.203 µg/mL
B6,lower viral inhibition relative to JO-1 (VIA),[10],5 fold
same,VIA IC50,[11],0.241 µg/mL
B7,VIA IC50,[11],0.026 µg/mL
